For one data set, the target named is T1, mIL22 (Mus musculus, UniProt Q9JJY9).
T1 sequence (Q9JJY9 34-179): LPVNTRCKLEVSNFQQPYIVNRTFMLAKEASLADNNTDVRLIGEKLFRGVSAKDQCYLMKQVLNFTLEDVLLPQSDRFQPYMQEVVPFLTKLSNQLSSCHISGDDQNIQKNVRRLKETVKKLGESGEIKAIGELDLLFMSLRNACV
Nature of the data set: Inhibition of mIL-22 induced acute phase response (SAA) in mice. Type of data set: in vivo. To be noted: 5 μg mIL22 and 50 μg mAb; molar ratio of mIL 22:mAb = 1:2.2; SAA in mice at 24 hours. On the procedure:
IL-22 induces acute phase responses in animals such as mice and humans. The mutant antibodies of the present invention can inhibit the acute phase response induced by IL-22. This acute phase response is indicated by the concentration of serum amyloid (SAA) in the blood of the animal as shown in FIG. 11. The SAA concentrations in the blood of mice were measured 24 hours after treatment of the mice by IL-22 and/or the mutant antibodies. When only IL-22 is used, the SAA concentration was high.
5 μg mIL-22 was used to stimulate an acute phase response in mice. The acute phase response was measured by the concentration of serum amyloid (SAA) in the blood of the mice. The anti-IL-22 antibodies were administered at two different dosage levels to inhibit the IL-22 induced acute phase response: 5 μg and 50 μg. Five mice were used for each dose group. The SAA concentrations were measured at 24 hours after injection of IL-22 and/or antibodies and the results are shown in FIG. 11.

The nature of data set [1]: Pharmacokinetics in NOD SCID mice, plasma concentration by solid phase ELISA. Type of data set: in vivo, mouse. The following applies: after a 10 mg/kg IV injection. As for the experimental part:
The pharmacokinetics of the mutant antibodies of Table 1 were analyzed in mice. The antibodies were injected into mice by IV injection at two doses 0.3 mg/kg and 10 mg/kg. The concentrations of the injected antibodies in the blood plasma were measured by solid phase ELISA.
Two anti-IL-22 antibodies CPS02 and CPS09 were tested in NOD SCID mice. The antibodies were injected via IV at two dosages: 0.3 mg/kg and 10 mg/kg. Three mice were used for each dose group. Blood samples were retrieved from the mice at 10 min, 1 h, 3 h 7 h, 24 h, 48 h, 96 h, 168 h, 240 h and 336 h after the IV injection. The concentrations of the injected antibodies in the blood samples were measured by solid phase ELISA.

Data set [2] relates to imiquimod (IMQ) induced psoriasis. Type of data set: in vivo. The text has this:
Two anti-IL-22 antibodies of the present invention, CPS02 and CPS09, were used for the treatment of imiquimod (IMQ) induced psoriasis in mice (FIG. 12). The mice were male BALB/c mice, which were an albino, laboratory-bred strain of the house mouse. A total of 70 mice, at a body weight of 18-20 g, were acclimated for 7 days before induction of psoriasis.
The 70 mice were randomized into 7 groups (10 mice in each group). One group (group 1) was used as a negative control to which no imiquimod was administered to the mice, which was instead replaced with Vaseline. […] The other 6 groups (groups 2-7) were dosed topically with imiquimod at a dosage of 82.5 mg/mouse (5% cream) once daily (qd) for 8 consecutive days from day 0 to day 7 (20 mg for the left ear, 62.5 mg for the shaved back) to induce psoriasis. The back skin was shaved to expose an area of 2×3 cm^2. For the Vaseline control group, the Vaseline was also applied at 82.5 mg/mouse once daily (qd) for 8 consecutive days (20 mg for left ear, 62.5 mg for the shaved back) from day 0 to day 7.
Group 2 was a group of psoriasis-induced mice that were untreated to serve as a control group. The treatment period completely overlapped with the imiquimod application period (day 0 to day 7). For group 2, the mice received both imiquimod and […] on each day of the 8-day period (day 0 to day 7). For the groups that received intravenous (I.V.) injection, the imiquimod was applied within one hour after the I.V. injection on days 0 and 3.
Group 3 was treated with the steroid dexamethasone, which is a current therapeutic treatment used for psoriasis. The dexamethasone was topically applied twice a day (BID) for 8 days. Group 4 was treated with phosphate-buffered saline (PBS), which served as a negative control. Group 5 was treated with an isotype control antibody that also served as a negative control. Groups 6-7 were treated with the anti-IL22 antibodies CPS02 (A) and CPS09 (B), respectively. The treatments for Groups 4-7 were administered by a single intravenous (I.V.) injection on each of days 0 and 3. 3 mice in group 6 died on day 0 and 2 died on day 1. On day 3, the I.V. injection dosage for this group was decreased to 10 mg/kg.
During the 8 day treatment period, the ear thickness was measured on days 0, 3, 5 and 7. The body weight and various skin scores were recorded daily. Pictures of the psoriasis sites were taken on days 0, 3, 5 and 7. On days 1 and 4, about 60 μl blood was collected via retro-orbital bleeding over 24 hours and placed in BD Microtainer® tubes coated with dipotassium ethylenediaminetetraacetic acid (K2EDTA). Plasma was then collected (to get at least 20 μl plasma) and stored at −80° C.
Skin scores for erythema, scales and thickness were measured daily according to an established grading system. The erythema, scales and thickness were scored independently on a scale of from 0 to 4: 0 means none, 1 means slight, 2 means moderate, 3 means marked, and 4 means very marked. The cumulative (total) skin score was also calculated.
The effects of the treatments were analyzed statistically using two-way analysis of variance (ANOVA, Bonferroni post-tests) or one-way ANOVA analysis. For comparisons between the treatment groups and the control group, the p value is denoted in FIGS. 13-18 as (*) if less than 0.05, (**) if less than 0.01, or (***) if less than 0.001.

[3] abbreviates: group 6 (10 mice), 20 mg/kg I.V. on day 0.

Here are results for one molecule from patent US11834472B2, “Anti-IL-22 antibodies, antibody fragments, their immunoconjugates and uses thereof” (BioAtla, Inc., priority 2018, dated 2023).

B1: CPS02: mutant anti-IL-22 antibody binding human and mouse IL-22; light chain LC-06, heavy chain HC-08 (antibody, V domains shown)
VH: QVQLVQSGAEVKKPGASVKVSCKASGYIFRSYWIHWIRQPPGKGLEWIGRIYPGTGRTYYNEKFKGRVTISADKSISTAYLQWSSLKASDTAMYYCARSYDSSVAYWGQGTLVTVSS
VL: AIQLTQSPSSLSASVGDRVTITCSASSSVSYMHWYLQKPGQSPQLLIYKTRKLASGVPSRFSGSGSGTDFTFTISSLEAEDAATYYCQQWSSNPYITFGQGTKVEIKR
B1: the “Acute Phase response (% signal reduction)” value with mIL22 is reported as “signal increase”. Further, the half-life in mice result in data set [1] is recorded as “about 18 hours”. For the same molecule, the “reduction in body weight of the treated mice” value in data set [2] (IMQ psoriasis mice, days 0-7, in comparison to dexamethasone / PBS (FIG. 13)) is “less reduction in body weight”. In addition, in data set [2] (setting [3]), the “mice died on day 0” value is on record as 3 mice and the “mice died on day 1” value amounted to 2 mice. In data set [2] (vs negative controls (isotype matched antibody, PBS, vehicle) (FIG. 14)), the ear skin thickness result is “less”. The skin erythema score result in data set [2] (vs negative controls (isotype matched antibody, PBS, vehicle) (FIG. 15)) is recorded as “lower”. Further, the skin scale score entry in data set [2] (vs negative controls (isotype matched antibody, PBS, vehicle) (FIG. 16)) is listed as “lower”. For the same molecule, in data set [2] (vs negative controls (isotype matched antibody, PBS, vehicle) (FIG. 17)), the skin thickness entry is reported as “lower”. The total skin score result in data set [2] (vs negative controls (isotype matched antibody, PBS, vehicle) (FIG. 18)) is “lower”.
